Positions count from the first letter of the chain named.
T1: mouse Claudin-6 (CLDN6) (mouse, UniProt Q9Z262 1-219)
T1 construct: whole, on cells; GFP fusion on engineered HEK293T cells; also called Mouse CLDN6; murine CLDN6
T1 sequence (looked up): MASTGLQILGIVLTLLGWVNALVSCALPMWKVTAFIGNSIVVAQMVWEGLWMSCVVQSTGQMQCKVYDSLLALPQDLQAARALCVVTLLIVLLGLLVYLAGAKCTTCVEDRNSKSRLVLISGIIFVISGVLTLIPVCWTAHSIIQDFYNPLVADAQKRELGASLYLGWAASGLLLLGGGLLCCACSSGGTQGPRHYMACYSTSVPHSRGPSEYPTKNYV

B1: AB S3 (antibody, V domains shown)
VH: EVQLLESGGGLVQPGGSMRLSCAASGFTFSNYWMNWVRQAPGKGLEWIAQIRLKSDNYVTHYTDSVKGRFTISRDDSKRTVYLQMNSLRAEDTGIYYCSDGPPSGSWGQGTLLTVSS
VL: DIQMTQSPSSLSASVGDRVTITCRISENIYSYLAWYQQKPGKAPKLLVYNAKILVEGVPSRFSGSGSGTDFTLTISSLQPEDFGTYYCQHHYTVPWTFGQGTKLEIK
B2: AB18-chim (antibody, V domains shown)
VH: QVQLKQSGPELEKPGASVKISCKASGYSFTGYNMNWVKQSNGKSLEWIGNIDPYYGGSTYNQKFTGKATLTVDKSSSTAYMQLKSLTSEDSAVYYCARERSGYVFSAMDYWGQGTSVTVSS
VL: NIMMTQSPSSLAVSAGEKVTMSCKSSQSVLFSSNQKNYLAWYQQKPGQSPRLLIYWASTRESGVPDRFTGSGSGTDFTLTISNVQAEDLAVYYCHQYLSSRTFGAGTKLELK
B3: AB1-11 (antibody, V domains shown)
VH: QVQLVQSGAEVKKPGASVKMSCKASGYTFTTYTMHWVRQAPGQGLEWIGFINPSSGYTDYAQKFQGRVTLTADKSTSTVYMELSSLRSEDTAVYYCANGDYYVAYWGQGTLVTVSS
VL: DIQLTQSPSSLSASVGDRVTMTCTASSSVSSTYFHWYQQKPGKAPKLWIYSTSNLASGVPSRFSGSGSGTDYTLTISSMQPEDAATYYCHQYHRSPLTFGQGTKLEIK
notes: humanized; also called humanized AB1-11; HU-11
B4: AB18-4 (antibody, V domains shown)
VH: QVQLVQSGAEVKKPGASVKVSCKASGYSFTGYNMNWVRQAPGQGLEWMGNIDPYYGGSTYAQKFQGRVTMTVDTSTSTVYMELSSLRSEDTAVYYCARERSGYVFSAMDYWGQGTLVTVSS
VL: DIVMTQSPDSLAVSLGERVTMNCKSSQSVLFSSNQKNYLAWYQQKPGQPPKLLIYWASTRESGVPDRFSGSGSGTDFTLTISSVQAEDVAVYYCHQYLSSRTFGQGTKLEIK
B5: AB18-6 (antibody, V domains shown)
VH: B4 VH with V20I, M48I, V68A, M70L, V79A
VL: B4 VL
B6: AB9-chim (antibody, V domains shown)
VH: EVQLQQSGPELVKPGASVKMSCKASGYRFTDYNMHWVKQSHGKSLEWIGYINPNNGGTNYNQNFKGKATLTVNKSSSTAYMELRSLTSEDSAAYYCARDYLYFFDCWGQGTTLTVSS
VL: DIQMTQSPASQSASLGESVTITCLASQTIGTWLAWYQQKPGKSPQLLIYAAASLADGVPSRFSGSGSGTRFSFKISSLQAEDFVSYYCQQLYSIPRTFGGGTKLEIK
B7: AB4-6 (antibody, V domains shown)
VH: QVQLVQSGAEVKKPGASVKMSCKASGYTFTSYTMHWIRQAPGQGLEWIGYINPSSTYTHYAQKFQGRATLTADKSTSTAYMELSSLRSEDTAVYYCSRGELGGFAYWGQGTLVTVSS
VL: DVVMTQSPLSLPVTLGQPASISCRSSQSLVHSDGNTYLNWYQQRPGQSPRLLIYKVSNRFSGVPDRFSGSGSGTDFTLKISRVEAEDVGVYYCSQSTHVPYTFGQGTKLEIK
notes: humanized
B8: AB4-7 (antibody, V domains shown)
VH: B7 VH with L45Q
VL: B7 VL
notes: humanized
B9: AB4-11 (antibody, V domains shown)
VH: B7 VH with A61I, Q62K, Q65K, G66D
VL: B7 VL
notes: humanized
B10: AB4-9 (antibody, V domains shown)
VH: B7 VH with A61I, Q62K, Q65K, G66D, K74T
VL: B7 VL
notes: humanized
B11: AB4-10 (antibody, V domains shown)
VH: B7 VH with L45Q, A61I, Q62K, Q65K, G66D, K74T
VL: B7 VL
notes: humanized
B12: AB4-12 (antibody, V domains shown)
VH: B7 VH with L45Q, A61I, Q62K, Q65K, G66D
VL: B7 VL
notes: humanized
B13: AB4-8 (antibody, V domains shown)
VH: QVQLVQSGAEVKKPGASVKVSCKASGYTFTSYTMHWVRQAPGQGLEWMGYINPSSTYTHYIKKFKDRVTMTADTSTSTVYMELSSLRSEDTAVYYCSRGELGGFAYWGQGTLVTVSS
VL: B7 VL
notes: humanized
B14: AB9-3 (antibody, V domains shown)
VH: QVQLVQSGAEVKKPGASVKMSCKASGYRFTDYNMHWVRQAPGQGLEWIGYINPNNGGTNYAQKFQGRATLTVDTSTSTAYMELSSLRSEDTAVYYCARDYLYFFDCWGQGTLLTVSS
VL: DIQMTQSPSSLSASVGDRVTITCLASQTIGTWLAWYQQKPGKAPKLLIYAAASLADGVPSRFSGSGSGTDFTFTISSLQPEDFVTYYCQQLYSIPRTFGQGTKLEIK

Experiments:
[1] = molecular target: human Claudin-6 (CLDN6) (human) (UniProt P56747); test: FACS, limiting dilution, UMUC4 cells
[2] = molecular target: human Claudin-6 (CLDN6) (human) (UniProt P56747); test: FACS, limiting dilution, ARK2 cells
[3] = molecular target: human Claudin-6 (CLDN6) (human) (UniProt P56747); test: FACS, limiting dilution, OV90 cells
[4] = molecular target: human Claudin-6 (CLDN6) (human) (UniProt P56747); test: FACS, 0.3 ug Ab, 293T clone expressing human CLDN6 (2nd Ab only 768.07)
[5] = molecular target: human Claudin-6 (CLDN6) (human) (UniProt P56747); test: FACS, 0.3 ug Ab, ARK2 cells (2nd Ab only 1351.21)
[6] = molecular target: human Claudin-6 (CLDN6) (human) (UniProt P56747); test: FACS, 1.5 ug Ab, OVCA429 cells (2nd Ab only 885.77)
[7] = molecular target: human Claudin-6 (CLDN6) (human) (UniProt P56747); test: FACS, 1.5 ug Ab, 293T clone expressing human CLDN6 (2nd Ab only 768.07)
[8] = molecular target: human Claudin-6 (CLDN6) (human) (UniProt P56747); test: FACS, 1.5 ug Ab, ARK2 cells (2nd Ab only 1351.21)
mouse Claudin-6 (CLDN6) = molecular target: T1, mouse Claudin-6 (CLDN6); test: FACS, 293T clone expressing mouse CLDN6, dose not stated (2nd Ab only 1061.72)
Experimental: Two doses (1.5 μg or 0.3 μg) of the humanized antibodies were tested for binding to either human CLDN6 or murine CLDN6 which proteins were expressed by engineered 293T clones.

FACS fluorescence [4] | FACS fluorescence [5] | FACS fluorescence [6] | FACS fluorescence [7] | FACS fluorescence [8] | FACS fluorescence (mouse Claudin-6 (CLDN6)) | also measured | Binder
– | – | – | – | – | – | FACS signal at 0.32 nM [1]: 533; FACS signal at 1.6 nM [1]: 647; FACS signal at 8 nM [1]: 1980; FACS signal at 40 nM [1]: 7780; FACS signal at 200 nM [1]: 20800; FACS signal at 1000 nM [1]: 45300; FACS signal at 0.32 nM [2]: 372; FACS signal at 1.6 nM [2]: 933; FACS signal at 8 nM [2]: 4830; FACS signal at 40 nM [2]: 24600; FACS signal at 200 nM [2]: 83600; FACS signal at 0.32 nM [3]: 482; FACS signal at 1.6 nM [3]: 1040; FACS signal at 8 nM [3]: 4470; FACS signal at 40 nM [3]: 19500; FACS signal at 200 nM [3]: 63100 | B1
73800 | 3440 | 25500 | 135000 | 9150 | – | – | B2
64900 | 53900 | – | 113000 | 97700 | 101000 | FACS signal at 0.32 nM [1]: 618; FACS signal at 1.6 nM [1]: 839; FACS signal at 8 nM [1]: 1610; FACS signal at 40 nM [1]: 4160; FACS signal at 200 nM [1]: 25700; FACS signal at 0.32 nM [2]: 377; FACS signal at 1.6 nM [2]: 639; FACS signal at 8 nM [2]: 2290; FACS signal at 40 nM [2]: 3460; FACS signal at 200 nM [2]: 16400; FACS signal at 1000 nM [2]: 50500; FACS signal at 0.32 nM [3]: 452; FACS signal at 1.6 nM [3]: 753; FACS signal at 8 nM [3]: 2150; FACS signal at 40 nM [3]: 7820; FACS signal at 200 nM [3]: 32500; FACS signal at 1000 nM [3]: 72100 | B3
32400 | 1130 | 3220 | 54400 | 1380 | – | – | B4
26900 | 1390 | 6750 | 58500 | 1940 | – | – | B5
46700 | 3510 | 3570 | 72000 | 4490 | – | – | B6
10800 | 3300 | – | 29200 | 9840 | 14200 | – | B7
19200 | 2770 | – | 33300 | 7560 | 6640 | – | B8
37800 | 6390 | – | 61200 | 9170 | 1230 | – | B9
37200 | 3060 | – | 56900 | 7790 | 1780 | – | B10
50800 | 7210 | – | 77200 | 20200 | 2650 | – | B11
71100 | 9690 | – | 86200 | 24200 | 1130 | – | B12
49300 | 3120 | – | 77600 | 7310 | 4700 | – | B13
9500 | 1140 | 1260 | 24600 | 1470 | – | – | B14
